Earlier results, collected in paper PMC9260958.

Molecular target: Cys647 (UniProt position 647, LGEVHCGTNVR)
Assay: chemical modification (pH dependence of enzyme inactivation kinetics)
Conditions: not stated (the inactivator is not named in the sentence that gives the value)

Substance: Protein arginine deiminase 2 (peptidylarginine deiminase 2, PAD2) (Homo sapiens (inferred; not stated in the article))
- pKa: ∼8.2
